The source of these data is PMC3630103, “Development of a Highly Protective Combination Monoclonal Antibody Therapy against Chikungunya Virus” (PLoS Pathogens, 2013).

The labels stand for the following.
B1: CHK-152 (mouse monoclonal antibody) (antibody, V domains shown)
VH: QVQLQQPGAALVKPGASAMMSCKASGYTFTSYWITWVKQRPGQGLEWIGDIYPGTGRTIYKEKFKTKATLTVDTSSSTAFMQLNSLTSEDSAVYYCARGYGSPYYALDYWGQGTSVTVSS
VL: DIVLTQSPASLAVSQGQRATISCKASQSVDYDGDSYVNWYQQKPGQSPKLLIYDASNLESGIPARFSGSGSGTDFTLNIHPVEEEDVATYYCQESNEDPRTFGGGTKLEIK
notes: mouse VH of CHK-152; mouse IgG heavy-chain constant region; mouse VL of CHK-152; mouse light-chain constant region; also called murine CHK-152; mouse CHK-152
B2: CHK-263 (mouse monoclonal antibody) (antibody, V domains shown)
VH: QVQLQQSGAELVKPGASVKISCKASGYAFSSYWMNWVKQRPGKGLEWIGQIYPGDGDTNYNGKFKGKATLTADKSSSTAYMQLSSLTSEDSAVYFCARGGLTIDYWGQGTTLTVSS
VL: DIVLTQSPATLSVTPGDSVSLSCRASQSISDNLHWYQQKSHESPGLLIKYASQSISGIPSRFSGSGSGTDFTLSINSVETEDFGMYFCQQSNSWPYTFGGGTKLEIK
B3: CHK-166 (mouse monoclonal antibody) (antibody, V domains shown)
VH: EVRLVESGGGLEQPGGSLKLSCAASGFTFSDYFMYWVRQTPEKRLEWVAYISNGGISTFYSDAVKGRFTISRDNARNTLYLQMSRLKSEDTAIYYCVRQVYGQGYFDYWGQGTTLAVSS
VL: QIVLIQSPAIMSASLGERVTMTCTASSSVSSSYLHWYQQKPGSSPKLWIYSSFSLASGVPARFSGSGSGTSYSLTISTMEAEDAATYYCHQYLRSPWTFGGGSKLEIK
B4: CHK-102 (mouse monoclonal antibody) (antibody, V domains shown)
VH: QVQLQQSGAELVKPGASVKISCKTSGYAFSSFWMHWVKQRPGKGLEWIGQIYPGDGDTNYNGKFKDKATLTADKSSNTAYMQLTSLTSEDSAVYFCARNLLFDYWGQGTTLTVSS
VL: EILMTQSPAILSVSPGERVSFSCRASQSIGSNIHWYQQRTNGSPRLLIKYASESISGIPSRFSGSGSGTDFTLSINSVESEDIADYYCQQNNIWPFTFGSGTKLEIK

One test deals with CHIKV pE2-E1 (E3-E2-E1) of the CHIKV-LR strain (Chikungunya virus La Reunion 2006 OPY-1 …, strain). Briefly: cell-based or functional assay.
Settings: not given
Take B1: the “EC50 of neutralisation of CHIKV-LR (FRNT on NIH 3T3 cells)” value (from here on “EC50 … (FRNT on NIH 3T3 cells)”) was 0.001 µg/mL, the “EC50 of neutralisation of CHIKV-LR (FRNT on Vero cells)” value (from here on “EC50 … (FRNT on Vero cells)”) was 0.002 µg/mL and the “EC90 of neutralisation of CHIKV-LR (FRNT on Vero cells)” value (shortened to “EC90 of neutralisation of CHIKV-LR”) came to 0.01 µg/mL.

For B2, the “EC50 … (FRNT on NIH 3T3 cells)” value came out at 0.002 µg/mL, the “EC50 … (FRNT on Vero cells)” value amounted to 0.005 µg/mL and the “EC90 of neutralisation of CHIKV-LR” value is 0.136 µg/mL.

Regarding B3, the “EC50 … (FRNT on NIH 3T3 cells)” value was 0.202 µg/mL, the “EC50 … (FRNT on Vero cells)” value came to 0.154 µg/mL and the “EC90 of neutralisation of CHIKV-LR” value stood at 8.6 µg/mL.

Regarding B4, the “EC50 … (FRNT on NIH 3T3 cells)” value worked out at 0.03 µg/mL, the “EC50 … (FRNT on Vero cells)” value was 0.014 µg/mL and the “EC90 of neutralisation of CHIKV-LR” value came out at 0.351 µg/mL.

For the next test, the target named is T1, CHIKV 181-25 virion (Chikungunya virus, strain 181/25 …, UniProt Q88628, strain).
T1 construct: E2 envelope glycoprotein of Chikungunya virus strain 181-25, on virions; E1 envelope glycoprotein of Chikungunya virus strain 181-25, on virions; Whole virus particle captured on the plate by the MAb CHK-65; the capsid protein inside the particle is not written as a chain; also called CHIKV virion; virions; copies: 240 + 240
Briefly: ELISA; virion capture competition ELISA: plates coated with 5 µg/ml CHK-65, 3x10^6 FFU of CHIKV 181-25 captured, incubated with mouse MAbs for one hour, washed, then 125 ng/ml hu-CHK-152, detected with biotin-labeled goat anti-human antibody and HRP-streptavidin. The conditions noted are these: one partner purified. (In general: ELISA stands for enzyme-linked immunosorbent assay.)
With B1, the binding result is reported as “binds”.
